Measurements taken from paper PMC9482650, “Quantitative fragmentomics allow affinity mapping of interactomes” (Nature Communications, 2022).

T1: TJP3_3, O95049
T1 sequence (O95049 375-456, limits assumed, looked up): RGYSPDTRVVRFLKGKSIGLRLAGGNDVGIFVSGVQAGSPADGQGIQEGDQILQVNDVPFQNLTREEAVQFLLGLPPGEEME

T2: SNTA1, Q13424
T2 sequence (Q13424 82-180, limits assumed, looked up): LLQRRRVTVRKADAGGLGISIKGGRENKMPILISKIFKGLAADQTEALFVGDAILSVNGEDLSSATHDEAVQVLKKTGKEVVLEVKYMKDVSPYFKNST

T3: DVL3, Q92997
T3 sequence (Q92997 244-331, limits assumed, looked up): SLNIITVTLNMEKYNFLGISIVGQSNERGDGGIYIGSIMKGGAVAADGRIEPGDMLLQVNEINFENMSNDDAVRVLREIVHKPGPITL

T4: LIN7C, Q9NUP9
T4 sequence (Q9NUP9 88-185, limits assumed, looked up): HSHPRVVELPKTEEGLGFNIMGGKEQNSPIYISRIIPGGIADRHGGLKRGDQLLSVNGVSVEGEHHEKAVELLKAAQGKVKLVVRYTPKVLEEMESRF

T5: APBA3_1, O96018
T5 sequence (O96018 389-490, limits assumed, looked up): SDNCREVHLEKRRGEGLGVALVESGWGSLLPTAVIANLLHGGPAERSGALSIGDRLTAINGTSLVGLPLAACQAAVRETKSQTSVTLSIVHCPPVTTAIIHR

T6: SNTG2, Q9NY99
T6 sequence (Q9NY99 68-166, limits assumed, looked up): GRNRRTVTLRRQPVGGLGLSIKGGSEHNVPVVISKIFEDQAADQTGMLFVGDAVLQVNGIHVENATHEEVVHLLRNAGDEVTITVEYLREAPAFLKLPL

T7: HTRA3, P83110
T7 sequence (P83110 354-453, limits assumed, looked up): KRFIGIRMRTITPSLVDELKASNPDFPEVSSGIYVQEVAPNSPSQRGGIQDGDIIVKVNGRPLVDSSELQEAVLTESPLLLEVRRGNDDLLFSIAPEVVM

T8: RHPN1, Q8TCX5
T8 sequence (Q8TCX5 508-602, limits assumed, looked up): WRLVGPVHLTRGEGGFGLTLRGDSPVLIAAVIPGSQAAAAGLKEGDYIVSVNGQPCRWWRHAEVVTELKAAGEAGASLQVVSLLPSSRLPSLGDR

T9: FRMPD1, Q5SYB0
T9 sequence (Q5SYB0 52-145, limits assumed, looked up): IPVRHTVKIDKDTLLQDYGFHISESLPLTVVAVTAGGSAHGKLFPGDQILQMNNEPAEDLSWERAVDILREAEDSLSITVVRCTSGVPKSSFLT

T10: PDZD7_3, Q9H5P4
T10 sequence (Q9H5P4 857-944, limits assumed, looked up): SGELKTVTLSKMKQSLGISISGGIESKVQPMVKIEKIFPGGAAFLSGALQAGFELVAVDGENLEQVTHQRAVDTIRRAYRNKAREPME

T11: TX1BP3, O14907
T11 sequence (O14907 10-122, limits assumed, looked up): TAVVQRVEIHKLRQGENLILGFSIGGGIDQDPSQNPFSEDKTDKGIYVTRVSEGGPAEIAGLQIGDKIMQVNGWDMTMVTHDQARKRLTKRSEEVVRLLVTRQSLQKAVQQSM

T12: PTPN13_1, Q12923
T12 sequence (Q12923 1088-1188, limits assumed, looked up): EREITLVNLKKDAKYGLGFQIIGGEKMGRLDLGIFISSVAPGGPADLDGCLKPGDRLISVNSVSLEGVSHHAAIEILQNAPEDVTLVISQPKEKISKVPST

B1: CLDN19, Q8N6F1 (peptide)
chain: PASAKGPLGV

biological target: T1, TJP3_3, O95049; assay: holdup assay; set-up: key: below the threshold = too weak to quantify, mostly under pKd 3.1 to 4; conditions: plain residues with an end cap or a label only (N-terminal biotin on a linker: ado-ado)

pKd | Binder
below the threshold | B1

biological target: GORASP1, Q9BQQ3; assay: holdup assay; set-up: key: below the threshold = too weak to quantify, mostly under pKd 3.1 to 4; conditions: plain residues with an end cap or a label only (N-terminal biotin on a linker: ado-ado)
Sequence (Q9BQQ3 1-208): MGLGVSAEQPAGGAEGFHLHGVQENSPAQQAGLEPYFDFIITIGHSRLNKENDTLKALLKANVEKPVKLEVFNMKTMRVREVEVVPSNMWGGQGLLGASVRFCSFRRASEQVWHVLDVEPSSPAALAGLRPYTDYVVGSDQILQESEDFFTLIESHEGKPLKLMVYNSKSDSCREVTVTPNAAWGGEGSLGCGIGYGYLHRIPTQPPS

pKd | Binder
below the threshold | B1

biological target: GRIP2_3, Q9C0E4; assay: holdup assay; set-up: key: below the threshold = too weak to quantify, mostly under pKd 3.1 to 4; conditions: plain residues with an end cap or a label only (N-terminal biotin on a linker: ado-ado)
Sequence (Q9C0E4 238-339): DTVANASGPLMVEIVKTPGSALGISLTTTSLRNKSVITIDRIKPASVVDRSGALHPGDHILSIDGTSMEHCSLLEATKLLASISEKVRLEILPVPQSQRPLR

pKd | Binder
below the threshold | B1

biological target: FRMPD3, Q5JV73; assay: holdup assay; set-up: key: below the threshold = too weak to quantify, mostly under pKd 3.1 to 4; conditions: plain residues with an end cap or a label only (N-terminal biotin on a linker: ado-ado)
Sequence (Q5JV73 12-100): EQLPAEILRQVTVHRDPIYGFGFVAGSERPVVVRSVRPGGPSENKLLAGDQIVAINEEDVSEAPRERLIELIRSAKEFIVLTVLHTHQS

pKd | Binder
below the threshold | B1

biological target: T2, SNTA1, Q13424; assay: holdup assay; set-up: key: below the threshold = too weak to quantify, mostly under pKd 3.1 to 4; conditions: plain residues with an end cap or a label only (N-terminal biotin on a linker: ado-ado)

pKd | Binder
below the threshold | B1

biological target: Inadl_4, Q8NI35; assay: holdup assay; set-up: key: below the threshold = too weak to quantify, mostly under pKd 3.1 to 4; conditions: plain residues with an end cap or a label only (N-terminal biotin on a linker: ado-ado)
Sequence (Q8NI35 547-651): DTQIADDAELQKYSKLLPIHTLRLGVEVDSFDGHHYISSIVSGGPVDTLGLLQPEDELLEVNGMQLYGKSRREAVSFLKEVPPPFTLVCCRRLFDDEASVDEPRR

pKd | Binder
below the threshold | B1

biological target: MAST1, Q9Y2H9; assay: holdup assay; set-up: key: below the threshold = too weak to quantify, mostly under pKd 3.1 to 4; conditions: plain residues with an end cap or a label only (N-terminal biotin on a linker: ado-ado)
Sequence (Q9Y2H9 962-1065): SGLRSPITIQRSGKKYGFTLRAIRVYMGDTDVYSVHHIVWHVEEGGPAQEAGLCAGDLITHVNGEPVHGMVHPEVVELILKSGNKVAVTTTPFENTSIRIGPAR

pKd | Binder
3.69 | B1

biological target: T3, DVL3, Q92997; assay: holdup assay; set-up: key: below the threshold = too weak to quantify, mostly under pKd 3.1 to 4; conditions: plain residues with an end cap or a label only (N-terminal biotin on a linker: ado-ado)

pKd | Binder
below the threshold | B1

biological target: T4, LIN7C, Q9NUP9; assay: holdup assay; set-up: key: below the threshold = too weak to quantify, mostly under pKd 3.1 to 4; conditions: plain residues with an end cap or a label only (N-terminal biotin on a linker: ado-ado)

pKd | Binder
below the threshold | B1

biological target: T5, APBA3_1, O96018; assay: holdup assay; set-up: key: below the threshold = too weak to quantify, mostly under pKd 3.1 to 4; conditions: plain residues with an end cap or a label only (N-terminal biotin on a linker: ado-ado)

pKd | Binder
below the threshold | B1

biological target: T6, SNTG2, Q9NY99; assay: holdup assay; set-up: key: below the threshold = too weak to quantify, mostly under pKd 3.1 to 4; conditions: plain residues with an end cap or a label only (N-terminal biotin on a linker: ado-ado)

pKd | Binder
below the threshold | B1

biological target: ARHGEF12, Q9NZN5-2; assay: holdup assay; set-up: key: below the threshold = too weak to quantify, mostly under pKd 3.1 to 4; conditions: plain residues with an end cap or a label only (N-terminal biotin on a linker: ado-ado)
Sequence (Q9NZN5 other isoform, or with tags, fused parts or gaps): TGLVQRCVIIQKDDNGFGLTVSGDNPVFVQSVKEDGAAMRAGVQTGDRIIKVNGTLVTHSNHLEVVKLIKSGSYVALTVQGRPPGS

pKd | Binder
below the threshold | B1

biological target: FRMPD2_2, Q68DX3; assay: holdup assay; set-up: key: below the threshold = too weak to quantify, mostly under pKd 3.1 to 4; conditions: plain residues with an end cap or a label only (N-terminal biotin on a linker: ado-ado)
Sequence (Q68DX3 944-1038): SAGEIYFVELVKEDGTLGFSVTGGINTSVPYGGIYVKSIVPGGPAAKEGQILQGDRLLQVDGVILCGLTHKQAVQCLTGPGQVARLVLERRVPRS

pKd | Binder
below the threshold | B1

biological target: Inadl_5, Q8NI35; assay: holdup assay; set-up: key: below the threshold = too weak to quantify, mostly under pKd 3.1 to 4; conditions: plain residues with an end cap or a label only (N-terminal biotin on a linker: ado-ado)
Sequence (Q8NI35 673-780): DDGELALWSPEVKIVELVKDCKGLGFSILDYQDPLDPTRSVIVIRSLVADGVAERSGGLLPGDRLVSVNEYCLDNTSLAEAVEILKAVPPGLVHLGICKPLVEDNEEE

pKd | Binder
below the threshold | B1

biological target: T7, HTRA3, P83110; assay: holdup assay; set-up: key: below the threshold = too weak to quantify, mostly under pKd 3.1 to 4; conditions: plain residues with an end cap or a label only (N-terminal biotin on a linker: ado-ado)

pKd | Binder
below the threshold | B1

biological target: PTPN3, P26045; assay: holdup assay; set-up: key: below the threshold = too weak to quantify, mostly under pKd 3.1 to 4; conditions: plain residues with an end cap or a label only (N-terminal biotin on a linker: ado-ado)
Sequence (P26045 505-587): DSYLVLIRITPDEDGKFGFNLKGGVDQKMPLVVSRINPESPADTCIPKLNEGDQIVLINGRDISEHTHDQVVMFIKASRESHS

pKd | Binder
below the threshold | B1

biological target: FRMPD2_1, Q68DX3; assay: holdup assay; set-up: key: below the threshold = too weak to quantify, mostly under pKd 3.1 to 4; conditions: plain residues with an end cap or a label only (N-terminal biotin on a linker: ado-ado)
Sequence (Q68DX3 770-861): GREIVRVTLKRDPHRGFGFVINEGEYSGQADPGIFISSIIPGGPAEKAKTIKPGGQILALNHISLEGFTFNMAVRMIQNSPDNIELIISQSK

pKd | Binder
below the threshold | B1

biological target: T8, RHPN1, Q8TCX5; assay: holdup assay; set-up: key: below the threshold = too weak to quantify, mostly under pKd 3.1 to 4; conditions: plain residues with an end cap or a label only (N-terminal biotin on a linker: ado-ado)

pKd | Binder
below the threshold | B1

biological target: DLG2_3, Q15700; assay: holdup assay; set-up: key: below the threshold = too weak to quantify, mostly under pKd 3.1 to 4; conditions: plain residues with an end cap or a label only (N-terminal biotin on a linker: ado-ado)

pKd | Binder
below the threshold | B1

biological target: MAGI2_4, Q86UL8; assay: holdup assay; set-up: key: below the threshold = too weak to quantify, mostly under pKd 3.1 to 4; conditions: plain residues with an end cap or a label only (N-terminal biotin on a linker: ado-ado)
Sequence (Q86UL8 772-865): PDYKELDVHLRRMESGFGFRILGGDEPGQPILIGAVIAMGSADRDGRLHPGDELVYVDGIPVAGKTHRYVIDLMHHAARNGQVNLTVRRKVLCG

pKd | Binder
below the threshold | B1

biological target: T9, FRMPD1, Q5SYB0; assay: holdup assay; set-up: key: below the threshold = too weak to quantify, mostly under pKd 3.1 to 4; conditions: plain residues with an end cap or a label only (N-terminal biotin on a linker: ado-ado)

pKd | Binder
below the threshold | B1

biological target: PDZRN4_1, Q6ZMN7; assay: holdup assay; set-up: key: below the threshold = too weak to quantify, mostly under pKd 3.1 to 4; conditions: plain residues with an end cap or a label only (N-terminal biotin on a linker: ado-ado)
Sequence (Q6ZMN7 213-318): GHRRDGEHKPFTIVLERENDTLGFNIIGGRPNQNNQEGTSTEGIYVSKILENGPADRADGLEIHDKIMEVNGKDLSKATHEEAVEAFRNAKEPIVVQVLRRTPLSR

pKd | Binder
below the threshold | B1

biological target: T10, PDZD7_3, Q9H5P4; assay: holdup assay; set-up: key: below the threshold = too weak to quantify, mostly under pKd 3.1 to 4; conditions: plain residues with an end cap or a label only (N-terminal biotin on a linker: ado-ado)

pKd | Binder
below the threshold | B1

biological target: T11, TX1BP3, O14907; assay: holdup assay; set-up: key: below the threshold = too weak to quantify, mostly under pKd 3.1 to 4; conditions: plain residues with an end cap or a label only (N-terminal biotin on a linker: ado-ado)

pKd | Binder
below the threshold | B1

biological target: T12, PTPN13_1, Q12923; assay: holdup assay; set-up: key: below the threshold = too weak to quantify, mostly under pKd 3.1 to 4; conditions: plain residues with an end cap or a label only (N-terminal biotin on a linker: ado-ado)

pKd | Binder
below the threshold | B1
